From article doi:10.64898/2025.12.24.696337, “A Broadly Conserved Protective Epitope on the Lyme Disease Vaccine Antigen, OspA” (bioRxiv, 2025)

How the values were obtained:
[1] = target: T1, OspA serotype 3 (B. garinii PBr allele) on B. burgdorferi HB19-R1 reporter strain (Borreliella garinii PBr allele, in B. …, UniProt B8F1J0, strain); assay: flow cytometry on cells; live B. burgdorferi HB19-R1 reporter strains expressing OspA ST1-7 probed with 10 µg/ml mAb, then Alexa 647-labeled goat anti-human IgG; settings: one partner purified
T1 construct: OspA serotype 3, allele of B. garinii PBr; also called OspAST3; OspA ST3; source: expressed from a reporter plasmid in B. burgdorferi HB19-R1, on live cells

[2] = target: T2, OspA serotype 2 (B. afzelii PKo allele) on B. burgdorferi HB19-R1 reporter strain (Borreliella afzelii PKo allele, in B. …, UniProt P0A3N7); assay: as above; settings: one partner purified
T2 construct: OspA serotype 2, allele of B. afzelii PKo; also called OspAST2; OspA ST2; source: expressed from a reporter plasmid in B. burgdorferi HB19-R1, on live cells
T2 sequence (P0A3N7 17-273): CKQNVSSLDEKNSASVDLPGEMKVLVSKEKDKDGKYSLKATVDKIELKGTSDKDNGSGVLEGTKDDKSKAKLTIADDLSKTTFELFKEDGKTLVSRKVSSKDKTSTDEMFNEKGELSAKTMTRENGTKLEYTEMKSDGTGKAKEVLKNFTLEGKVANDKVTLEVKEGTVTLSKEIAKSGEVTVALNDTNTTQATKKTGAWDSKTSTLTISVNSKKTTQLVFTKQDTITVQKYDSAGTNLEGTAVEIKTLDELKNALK

[3] = target: T3, OspA serotype 4 (B. bavariensis PBi allele) on B. burgdorferi HB19-R1 reporter strain (Borreliella bavariensis PBi allele, in …, UniProt Q6LBF1, strain); assay: as above; settings: one partner purified
T3 construct: OspA serotype 4, allele of B. bavariensis PBi; also called OspAST4; OspA ST4; source: expressed from a reporter plasmid in B. burgdorferi HB19-R1, on live cells

[4] = target: T4, Recombinant OspAST1 (residues 18-273) from B. burgdorferi B31 (Borreliella burgdorferi B31, UniProt P0CL66); assay: BLI; Octet RED96e; mAb captured on AHC sensors, three-fold dilution series of OspA (21.58 nM to 0.089 nM); PBS, 0.1% BSA, 0.01% Tween20; global 1:1 model; settings: both partners purified
T4 construct: Outer surface protein A (OspA) serotype 1, B. burgdorferi B31, residues 18 to 273; Used for the crystal structures; also called OspA (18-273); outer surface protein A serotype 1; not shown: His10, N-terminal, cleaved; SUMO, N-terminal, cleaved

[5] = target: T5, Recombinant OspA serotype 1 (provided by Moderna) (Borreliella burgdorferi, strain not …, UniProt P0CL66); assay: microsphere immunoassay (MIA); recombinant OspA ST1-7 coupled to Magplex-C microspheres; serial dilutions of mAb in PBS, 2% BSA, pH 7.4, 1 h at room temperature; PE goat anti-human IgG Fc; settings: both partners purified
T5 construct: OspA serotype 1; also called recombinant OspA ST1; ST 1; source: E. coli, purified; provided by Dr. Meredith Finn (Moderna)
T5 sequence (P0CL66 17-273): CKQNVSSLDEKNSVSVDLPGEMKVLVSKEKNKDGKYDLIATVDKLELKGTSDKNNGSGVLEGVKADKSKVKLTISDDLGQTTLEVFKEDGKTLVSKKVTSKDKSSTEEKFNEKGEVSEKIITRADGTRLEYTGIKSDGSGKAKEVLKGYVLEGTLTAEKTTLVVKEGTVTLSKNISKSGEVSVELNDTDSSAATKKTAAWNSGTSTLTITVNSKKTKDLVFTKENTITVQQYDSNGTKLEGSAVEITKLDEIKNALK

[6] = target: T6, Native OspA serotype 3 on B. garinii PBr cells (Borreliella garinii PBr, UniProt B8F1J0, strain); assay: flow cytometry on cells; native Bbsl strains (primary isolates, ST1-7) probed with mAb; settings: one partner purified
T6 construct: OspA serotype 3 of B. garinii PBr, native on the bacterial surface; also called native OspA ST3; source: endogenous, B. garinii PBr cells

B1: 221-5, recombinant human monoclonal IgG1 (antibody, V domains shown)
VH: EVQLVQSGAEVKKPGESLKISCKGSGYSFTSYWIGWVRQMPGKGLEWMGIIYPGDSDTRYSPSFQGQVTISADKSISTAYLQWSSLKASDTAMYYCARHLGIDYFFGMDVWGQGTTVTVSS
VL: EIVLTQSPATLSLSPGERATLSCRASQSVSSYLAWYQQKPGQAPRLLIYDASTRDTGIPARFSGSGSGTDFTLTISSLEPEDFAVYYCQHHSNWYTFGQGTKLEIK
notes: rest human IgG1 constant region; IgG1; VH unmutated from germline HV5-51, VL derived from KV3-11; also called Class I Bin 1 mAb; source: Expi293, transiently transfected with VH and VL plasmids, purified (Protein A)
With B1 the MFI [1] was greater than 4000, the MFI [2] was greater than 4000 and the MFI [3] was greater than 4000. The Kd [4] was 0.52 nM and the binding result [5] was “binds”.

B2: 221-11, recombinant human monoclonal IgG1 (antibody, V domains shown)
VH: EVQLVQSGAEVKKPGESLKISCQSSGYRFTIYWIGWVRQMPGKGLEWMGIIWPGDSDTRYSPSFQGQVTISADKSISTAYLQWSSLKASDTAMYYCVRGIGRYSNWFLDYWGQGTLVTVSS
VL: AIQLTQSPSSLSASVGDRVTITCRASQGFSSALAWYQQKPGKAPKLLIYDASSLESGVPSRFSGSGSGTDFTLTISSLQPEDFATYYCQQFNSYPLTFGGGTKVEIK
notes: rest human IgG1 constant region; IgG1; VH germline HV5-51, VL germline KV1-13; also called Class II Bin 1 mAb; source: Expi293, transiently transfected with VH and VL plasmids, purified (Protein A)
For B2, the binding result [1] was “binds” and the Kd [4] was 0.35 nM.

B3: 227-1, recombinant human monoclonal IgG1 (antibody, V domains shown)
VH: EVQLVQSGAEVKMPGESLKISCEVSGYSFTSYWIGWVRQMPGKGLEWMGIIYPGDSDTRYSPSFQGQVTISADKSISTAYLQWSSLKASDTAMYYCTRSISRSGPGFSLSWFFDYWGQGTLVTVSS
VL: AIQLTQSPSSLSASVGDRVTITCRASQGISNALAWYQQKPGKAPKLLIYDASSLERGVPSRFSGSGFGTDFTLTISSLQPEDFAIYYCQQFNGFPNTFGQGTRVEIK
notes: rest human IgG1 constant region; IgG1; VH germline HV5-51, VL germline KV1-13; also called Class III Bin 1 mAb; source: Expi293, transiently transfected with VH and VL plasmids, purified (Protein A)
B3 gave a Kd [4] of 1.7 nM.

B4: 857-2, recombinant human monoclonal IgG1 (antibody, V domains shown)
VH: EVQLVQSGEEVKKPGESLKISCKGSGYKFSSYWIGWVRQMPGKGLEWMGIIFPGDSDKRYSPSFQGQVTISADKSISTVYLQWSSLKASDTAMYYCARHITTHTYRGFFDFWGQGTLVTVSS
VL: AIQLTQSPSSLSASVGDRVTITCRASQDISSALAWYQQKPGKAPKLLIYDVSSLESGVPSRFSGSGSGTDFTLTISSLQPEDFATYYCQQFNGYPHRLTFGGGTKVEIK
notes: rest human IgG1 constant region; IgG1; VH germline HV5-51, VL germline KV1-13; also called mAb 857-2; Class I Bin 1 mAb; source: Expi293, transiently transfected with VH and VL plasmids, purified (Protein A)
B4 was tested, and the binding result [6] was “binds”, the MFI [1] was greater than 4000 and the MFI [2] was greater than 4000. It also gave an MFI [3] greater than 4000 and a Kd [4] of 0.3 nM.
